# Data from patent US20190111106A1.
# Target: AC domain (catalytic domain) of Bordetella pertussis adenylate cyclase toxin, recombinant (Bordetella pertussis) (UniProt J7QLC0)
# Assay: SPR competition: AC domain (10 µM) pre-mixed with CaM and injected over an FHA-coated chip
substance,measurement,value
Calmodulin (from UniProt P0DP23 2-149),percent reduction of AC domain binding to FHA,75%
